Residue numbers refer to the chain shown, from its start.
Columns and labels:
[1] = target: the molecule itself; test: cryo-EM structure; helical reconstruction of the helical stems of double-headed nucleocapsids (RELION 3.1); protein with bound host RNA in 20 mM Tris-HCl pH 7.4, 150 mM NaCl
[2] = target: the molecule itself; test: electron microscopy of purified filaments; purified mutant nucleoproteins imaged by EM; whether negative stain or cryo-EM is not told in the text shown
[3] = target: the molecule itself; test: cryo-EM imaging of filaments; nucleoprotein fractions from HEK293F lysate after two-step sucrose ultracentrifugation, put directly on cryo-EM grids

B1: Sendai virus nucleoprotein, wild type, uncleaved (NWT), assembled as nucleocapsid NCWT (natural protein)
chain: MAGLLSTFDTFSSRRSESINKSGGGAVIPGQRSTVSVFVLGPSVTDDADKLSIATTFLAHSLDTDKQHSQRGGFLVSLLAMAYSSPELYLTTNGVNADVKYVIYNIEKDPKRTKTDGFIVKTRDMEYERTTEWLFGPMVNKSPLFQGQRDAADPDTLLQIYGYPACLGAIIVQVWIVLVKAITSSAGLRKGFFNRLEAFRQDGTVKGALVFTGETVEGIGSVMRSQQSLVSLMVETLVTMNTARSDLTTLEKNIQIVGNYIRDAGLASFMNTIKYGVETKMAALTLSNLRPDINKLRSLIDTYLSKGPRAPFICILKDPVHGEFAPGNYPALWSYAMGVAVVQNKAMQQYVTGRTYLDMEMFLLGQAVAKDAESKISSALEDELGVTDTAKERLRHHLANLSGGDGAYHKPTGGGAIEVALDNADIDLEPEAHTDQDARGWGGDSGDRWARSMGSGHFITLHGAERLEEETNDEDVSDIERRIARRLAERRQEDATTHEDEGRNNGVDHDEEDDAAAAAGMGGI
notes: Sendai virus nucleoprotein (N), wild type, uncleaved; the N-tail is printed as 404-524; helical polymer, number of protomers not fixed; also called SeV nucleoprotein; SeV nucleocapsid; source: E. coli BL21 (DE3), purified (HisTrap HP, Superose 6 increase)
binding result [1]: binds

B2: Sendai virus nucleoprotein loop mutant (residues 118 to 127 replaced with all alanine) (natural protein)
chain: B1 chain with F118A, I119A, V120A, K121A, T122A, R123A, D124A, M125A, E126A, Y127A
notes: Sendai virus nucleoprotein (N), derivative of NWT; also called Loop118–127 mutant; source: E. coli BL21 (DE3), purified (HisTrap HP, Superose 6 increase)
binding result [2]: binds

B3: Sendai virus nucleoprotein NWT over-expressed in HEK293F cells (natural protein)
chain: B1 chain
notes: Sendai virus nucleoprotein (N), wild type; Fractions were chosen by western blot against the 6xHis tag; also called NWT in pCAGGS; nucleoproteins isolated from HEK293F cells; source: HEK293F, transfected, isolated from lysate by two-step sucrose ultracentrifugation; not shown: His6, C-terminal, kept
binding result [3]: binds

From PMC8062630, “Structure and assembly of double-headed Sendai virus nucleocapsids” (Communications Biology, 2021)
